From patent KR20210028556A (dated 2021)
Residue numbers refer to the chain shown, from its start.

B1: A2F2 (antibody, human IgG1, lambda, V domains shown)
VH: EVQLLESGGGLVQPGGSLRLSCAASGFTFSDYYMSWVRQAPGKGLEWVSSISPDGSNTYYADSVKGRFTISRDNSKNTLYLQMNSLRAEDTAVYYCAKNLRAFDYWGQGTLVTVSS
VL: QSVLTQPPPASGTPGQRVTISCSGSSSNIGSNTVYWYQQLPGTAPKLLIYANSQRPSGVPDRFSGSKSGTSASLAISGLRSEDEADYYCGSWDYSLSGYVFGGGTKLTVLG
notes: full IgG, human IgG1 heavy and lambda light constant regions; expressed in CHO-S; also called 항-ROR1 IgG 항체 A2F2
B2: CC9 (antibody, human IgG1, lambda, V domains shown)
VH: EVQLLESGGGLVQPGGSLRLSCAASGFTFSSYDMSWVRQAPGKGLEWVSGISHGSGNKYYADSVKGRFTISRDNSKNTLYLQMNSLRAEDTAVYYCAKRLSLRRRPSYYSDNAMDVWGQGTLVTVSS
VL: B1 VL with P9S, S23T, S31N, T33A, Y35N, A51Y, N52D, Q54N, S91A, Y94D
notes: full IgG, human IgG1 heavy and lambda light constant regions; expressed in CHO-S; also called 항-ROR1 IgG 항체 CC9
B3: DG6 (antibody, human IgG1, lambda, V domains shown)
VH: EVQLLESGGGLVQPGGSLRLSCAASGFTFSDYDMSWVRQAPGKGLEWVSVISPDGGSIYYADSVKGRFTISRDNSKNTLYLQMNSLRAEDTAVYYCARDVVECNMNPCSYDNAMDVWGQGTLVTVSS
VL: B1 VL with P9S, T33Y, Y35S, A51D, N52D, Q54H, S91A, Y94D
notes: full IgG, human IgG1 heavy and lambda light constant regions; expressed in CHO-S; also called 항-ROR1 IgG 항체 DG6
B4: BA6 (antibody, human IgG1, lambda, V domains shown)
VH: EVQLLESGGGLVQPGGSLRLSCAASGFTFSNYDMSWVRQAPGKGLEWVSAIYHSGSSKYYADSVKGRFTISRDNSKNTLYLQMNSLRAEDTAVYYCARGGNGAWDTGFDYWGQGTLVTVSS
VL: B1 VL with P9S, T33D, Y35S, A51Y, N52D, S53N, Q54N, S91A, Y94D
notes: full IgG, human IgG1 heavy and lambda light constant regions; expressed in CHO-S; also called 항-ROR1 IgG 항체 BA6
B5: D2B12 (antibody, human IgG1, lambda, V domains shown)
VH: EVQLLESGGGLVQPGGSLRLSCAASGFTFSNYDMSWVRQAPGKGLEWVSSISPSSGSSIYYADSVKGRFTISRDNSKNTLYLQMNSLRAEDTAVYYCAKAPGWCQAPSCYYDNAMDVWGQGTLVTVSS
VL: B1 VL with P9S, S31N, T33D, Y35S, A51D, N52D, S91A, Y94D
notes: full IgG, human IgG1 heavy and lambda light constant regions; expressed in CHO-S; also called 항-ROR1 IgG 항체 D2B12
B6: A2F3 (antibody, human IgG1, lambda, V domains shown)
VH: EVQLLESGGGLVQPGGSLRLSCAASGFTFSSYDMSWVRQAPGKGLEWVSWISPGGGSKYYADSVKGRFTISRDNSKNTLYLQMNSLRAEDTAVYYCARVNGRFDYWGQGTLVTVSS
VL: B1 VL with P9S, S31N, T33N, Y35S, N52D, Q54H, G90A, S91T
notes: full IgG, human IgG1 heavy and lambda light constant regions; expressed in CHO-S; also called 항-ROR1 IgG 항체 A2F3
B7: A2F2 M1 (antibody, human IgG1, lambda, V domains shown)
VH: B1 VH with G55A
VL: B1 VL
notes: full IgG, human IgG1 heavy and lambda light constant regions; expressed in CHO-S; also called 항-ROR1 IgG 항체 A2F2 M1
B8: BA6 M1 (antibody, human IgG1, lambda, V domains shown)
VH: B4 VH with G102A
VL: B1 VL with P9S, T33D, Y35S, A51Y, N52D, S53N, Q54N, S91A, Y94D
notes: full IgG, human IgG1 heavy and lambda light constant regions; expressed in CHO-S; also called 항-ROR1 IgG 항체 BA6 M1
B9: C2E3 (antibody, human IgG1, lambda, V domains shown)
VH: EVQLLESGGGLVQPGGSLRLSCAASGFTFSNYAMSWVRQAPGKGLEWVSSISHNSGSTYYADSVKGRFTISRDNSKNTLYLQMNSLRAEDTAVYYCAKFISARKSLGRSYSNGMDVWGQGTLVTVSS
VL: B1 VL with P9S, S23T, T33D, Y35T, N52D, Q54K, S91T
notes: full IgG, human IgG1 heavy and lambda light constant regions; expressed in CHO-S; also called 항-ROR1 IgG 항체 C2E3; ROR1 단일클론항체(C2E3)
B10: AB4 (antibody, human IgG1, lambda, V domains shown)
VH: B6 VH with G54D, G55S, K58I, V99P, N100T
VL: B1 VL with P9S, S31N, T33N, Y35N, A51Y, N52D, S53N, Q54K, S91T, Y94A
notes: full IgG, human IgG1 heavy and lambda light constant regions; expressed in CHO-S; also called 항-ROR1 IgG 항체 AB4

The binders below were run against T1, 재조합 인간 ROR1-His (Sino Biological, 13968-H08H) (human, UniProt Q01973 30-403) (assay: BLI (Octet), ROR1-His on the sensor, 1:1 fit).
T1 construct: bought protein
T1 sequence (Q01973 30-403 limits assumed): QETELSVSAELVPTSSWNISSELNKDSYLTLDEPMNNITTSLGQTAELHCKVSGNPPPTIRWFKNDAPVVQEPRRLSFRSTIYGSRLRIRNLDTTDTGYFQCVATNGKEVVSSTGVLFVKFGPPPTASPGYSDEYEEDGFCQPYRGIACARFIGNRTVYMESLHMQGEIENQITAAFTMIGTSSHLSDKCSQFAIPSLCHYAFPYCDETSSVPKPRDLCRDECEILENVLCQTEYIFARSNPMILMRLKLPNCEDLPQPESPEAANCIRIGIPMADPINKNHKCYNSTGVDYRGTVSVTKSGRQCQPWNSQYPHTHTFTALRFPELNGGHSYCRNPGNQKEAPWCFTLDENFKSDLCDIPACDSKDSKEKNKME

Binder	binding result
B1	binds
B2	binds
B3	binds
B4	binds
B5	binds
B6	binds
B7	binds
B8	binds

The binders below were run against T2, 인간 ROR2 (세포 표면 발현, CHO-human ROR2) (human, UniProt Q01974 34-943) (assay: flow cytometry, CHO-human ROR2 cells).
T2 construct: whole, on cells; negative control, transiently overexpressed on CHO cells
T2 sequence (Q01974 34-943): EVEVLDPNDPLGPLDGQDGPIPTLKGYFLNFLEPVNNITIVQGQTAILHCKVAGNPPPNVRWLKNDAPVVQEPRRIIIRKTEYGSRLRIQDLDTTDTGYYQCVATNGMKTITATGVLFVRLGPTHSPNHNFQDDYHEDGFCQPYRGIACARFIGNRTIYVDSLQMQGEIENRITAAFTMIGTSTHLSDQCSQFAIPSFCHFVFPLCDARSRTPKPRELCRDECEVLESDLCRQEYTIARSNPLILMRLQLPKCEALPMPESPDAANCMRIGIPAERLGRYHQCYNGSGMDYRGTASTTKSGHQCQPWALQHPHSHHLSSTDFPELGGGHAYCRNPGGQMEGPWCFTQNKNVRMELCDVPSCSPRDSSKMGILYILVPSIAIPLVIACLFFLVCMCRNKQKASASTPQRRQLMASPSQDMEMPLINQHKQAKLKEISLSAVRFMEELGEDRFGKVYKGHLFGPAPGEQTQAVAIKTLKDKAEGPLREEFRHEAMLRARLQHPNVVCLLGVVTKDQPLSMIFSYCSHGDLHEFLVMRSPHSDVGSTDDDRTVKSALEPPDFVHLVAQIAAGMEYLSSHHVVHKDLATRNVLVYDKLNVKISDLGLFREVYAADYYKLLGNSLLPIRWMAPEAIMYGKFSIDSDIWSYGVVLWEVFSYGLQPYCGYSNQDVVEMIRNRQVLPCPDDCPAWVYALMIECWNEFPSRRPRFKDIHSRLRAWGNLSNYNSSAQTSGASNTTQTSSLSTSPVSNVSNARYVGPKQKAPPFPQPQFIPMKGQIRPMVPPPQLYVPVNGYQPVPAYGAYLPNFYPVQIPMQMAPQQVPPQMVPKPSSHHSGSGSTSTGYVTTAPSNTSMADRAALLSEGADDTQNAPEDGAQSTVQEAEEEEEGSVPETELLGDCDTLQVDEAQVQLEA

Binder	binding result
B1	no binding
B2	no binding
B3	no binding
B9	no binding
B4	no binding
B10	no binding
B5	no binding
B6	no binding
B7	no binding
B8	no binding

What follows are binders tested against T3, 인간 ROR1 (세포 표면 발현) (human, UniProt Q01973 30-937) (assay: flow cytometry, JeKo-1 and Mino cells).
T3 construct: whole, on cells; endogenous on JeKo-1, Mino and other human cancer lines; overexpressed on CHO and MC38 cells; also called hROR1; CHO-human ROR1
T3 sequence (Q01973 30-937): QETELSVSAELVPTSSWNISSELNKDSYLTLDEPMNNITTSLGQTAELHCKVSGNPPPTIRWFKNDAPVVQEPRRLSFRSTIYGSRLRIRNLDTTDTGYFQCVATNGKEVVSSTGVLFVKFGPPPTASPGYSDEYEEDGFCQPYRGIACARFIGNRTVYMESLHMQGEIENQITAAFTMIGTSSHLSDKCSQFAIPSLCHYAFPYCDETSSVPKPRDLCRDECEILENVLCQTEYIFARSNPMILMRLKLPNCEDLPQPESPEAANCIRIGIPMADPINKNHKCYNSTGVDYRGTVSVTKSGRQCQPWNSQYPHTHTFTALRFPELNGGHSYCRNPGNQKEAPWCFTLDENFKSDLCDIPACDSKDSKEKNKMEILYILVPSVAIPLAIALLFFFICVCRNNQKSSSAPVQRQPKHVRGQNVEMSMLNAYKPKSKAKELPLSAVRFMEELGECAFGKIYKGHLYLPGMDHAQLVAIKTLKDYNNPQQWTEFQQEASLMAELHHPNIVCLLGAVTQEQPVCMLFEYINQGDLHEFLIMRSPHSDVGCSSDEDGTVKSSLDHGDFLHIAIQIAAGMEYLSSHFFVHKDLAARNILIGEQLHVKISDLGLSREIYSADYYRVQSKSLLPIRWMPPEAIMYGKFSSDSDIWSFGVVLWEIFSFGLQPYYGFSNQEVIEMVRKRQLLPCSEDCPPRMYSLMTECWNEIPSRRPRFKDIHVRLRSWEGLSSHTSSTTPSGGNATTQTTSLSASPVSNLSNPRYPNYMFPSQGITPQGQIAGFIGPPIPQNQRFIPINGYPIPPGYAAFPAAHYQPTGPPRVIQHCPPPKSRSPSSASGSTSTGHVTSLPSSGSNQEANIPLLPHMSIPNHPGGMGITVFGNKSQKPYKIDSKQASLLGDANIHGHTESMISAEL

Binder	binding result
B1	binds
B2	binds
B3	binds
B4	binds
B5	binds
B6	binds
B7	binds
B8	binds

The binders below were run against T4, 재조합 마우스 ROR1 단백질 (Acrobiosystems, RO1-M5221) (mouse, UniProt Q9Z139 30-406) (assay: ELISA, IgG on coated recombinant mouse ROR1).
T4 construct: extracellular domain; bought protein; also called 마우스 ROR1 항원
T4 sequence (Q9Z139 30-406): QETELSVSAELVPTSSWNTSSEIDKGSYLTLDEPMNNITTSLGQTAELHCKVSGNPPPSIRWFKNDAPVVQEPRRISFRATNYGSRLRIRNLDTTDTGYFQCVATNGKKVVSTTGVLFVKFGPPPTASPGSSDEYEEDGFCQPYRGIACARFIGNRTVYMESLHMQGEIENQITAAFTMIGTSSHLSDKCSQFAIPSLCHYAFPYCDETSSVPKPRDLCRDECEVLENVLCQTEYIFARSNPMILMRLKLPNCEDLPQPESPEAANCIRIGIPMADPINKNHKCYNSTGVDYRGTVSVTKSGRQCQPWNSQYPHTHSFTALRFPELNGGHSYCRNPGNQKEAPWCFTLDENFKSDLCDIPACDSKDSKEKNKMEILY

Binder	binding result
B1	binds
B2	binds
B3	binds
B9	binds
B4	binds
B10	binds
B5	binds
B6	binds
B7	binds
B8	binds

What follows are binders tested against T5, 인간 ROR1 항원 (ELISA 코팅: 실시예 1의 ROR1-Fc 또는 재조합 인간 ROR1-His) (human, UniProt Q01973 30-406) (assay: ELISA, IgG on coated human ROR1 protein).
T5 construct: extracellular domain; tag therefore open
T5 sequence (Q01973 30-406): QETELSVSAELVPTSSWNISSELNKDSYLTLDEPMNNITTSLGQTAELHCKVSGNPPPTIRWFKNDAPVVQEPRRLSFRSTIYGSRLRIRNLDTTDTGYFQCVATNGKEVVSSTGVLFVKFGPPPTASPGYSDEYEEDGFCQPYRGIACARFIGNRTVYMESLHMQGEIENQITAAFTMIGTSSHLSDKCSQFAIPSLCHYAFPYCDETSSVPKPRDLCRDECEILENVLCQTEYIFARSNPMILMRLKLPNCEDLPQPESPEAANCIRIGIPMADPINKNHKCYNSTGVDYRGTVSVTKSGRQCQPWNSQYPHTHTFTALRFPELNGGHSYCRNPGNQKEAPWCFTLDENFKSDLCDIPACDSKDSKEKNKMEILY

Binder	binding result
B1	binds
B2	binds
B3	binds
B4	binds
B5	binds
B6	binds
B7	binds
B8	binds

These binders were tested against T6, 마우스 ROR1 (세포 표면 발현, CHO-mouse ROR1) (mouse, UniProt Q9Z139 30-937) (assay: flow cytometry, CHO-mouse ROR1 cells).
T6 construct: whole, on cells; transiently overexpressed on CHO cells
T6 sequence (Q9Z139 30-937): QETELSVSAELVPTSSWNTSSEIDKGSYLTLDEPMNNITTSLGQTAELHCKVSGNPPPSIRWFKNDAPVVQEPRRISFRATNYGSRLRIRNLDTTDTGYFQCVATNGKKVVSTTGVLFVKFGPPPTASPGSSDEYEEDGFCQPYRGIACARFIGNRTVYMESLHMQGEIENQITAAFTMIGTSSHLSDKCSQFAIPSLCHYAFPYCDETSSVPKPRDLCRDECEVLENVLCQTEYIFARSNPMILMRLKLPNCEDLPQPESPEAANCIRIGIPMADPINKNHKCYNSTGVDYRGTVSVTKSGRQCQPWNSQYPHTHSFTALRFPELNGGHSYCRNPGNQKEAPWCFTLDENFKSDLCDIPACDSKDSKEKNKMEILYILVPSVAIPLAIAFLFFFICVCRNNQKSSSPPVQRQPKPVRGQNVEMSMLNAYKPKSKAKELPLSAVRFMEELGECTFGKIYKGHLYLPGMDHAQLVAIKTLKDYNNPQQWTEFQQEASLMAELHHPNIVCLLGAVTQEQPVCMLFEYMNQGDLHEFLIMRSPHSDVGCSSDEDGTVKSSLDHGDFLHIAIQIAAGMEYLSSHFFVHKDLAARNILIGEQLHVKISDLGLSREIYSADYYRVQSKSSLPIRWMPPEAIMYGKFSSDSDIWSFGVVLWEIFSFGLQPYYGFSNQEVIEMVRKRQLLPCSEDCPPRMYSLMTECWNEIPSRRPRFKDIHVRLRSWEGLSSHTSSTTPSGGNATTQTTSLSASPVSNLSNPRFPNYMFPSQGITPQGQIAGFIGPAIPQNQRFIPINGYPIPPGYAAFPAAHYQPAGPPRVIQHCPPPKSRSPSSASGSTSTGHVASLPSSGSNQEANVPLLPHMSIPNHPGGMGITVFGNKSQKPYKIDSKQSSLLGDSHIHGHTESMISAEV

Binder	binding result
B1	binds
B2	binds
B3	binds
B9	binds
B4	binds
B10	binds
B5	binds
B6	binds
B7	binds
B8	binds
